Data as given in patent US20200140562A1 (Innovent, published 2020).

Columns and labels:
[1] = biological target: T1, human OX40 on cells (CHO-hOX40, 293HEK-hOX40, Jurkat-hOX40, activated primary CD4+ T cells) (human, UniProt P43489 29-277); assay: flow cytometry, CHO-hOX40, 6.25 nM
T1 construct: whole, on cells; The cell type is told in each assay; also called CHO-OX40
T1 sequence (looked up): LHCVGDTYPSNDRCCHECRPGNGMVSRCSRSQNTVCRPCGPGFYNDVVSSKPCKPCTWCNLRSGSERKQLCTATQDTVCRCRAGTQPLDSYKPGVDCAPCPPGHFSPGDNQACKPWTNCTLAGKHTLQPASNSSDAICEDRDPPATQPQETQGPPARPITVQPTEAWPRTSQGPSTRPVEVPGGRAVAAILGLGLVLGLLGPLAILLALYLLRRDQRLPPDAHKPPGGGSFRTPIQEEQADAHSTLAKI

[2] = biological target: T1, human OX40 on cells (CHO-hOX40, …); assay: flow cytometry, CHO-hOX40, 0.390625 nM
[3] = biological target: T1, human OX40 on cells (CHO-hOX40, …); assay: flow cytometry, CHO-hOX40, 0.78125 nM
[4] = biological target: T1, human OX40 on cells (CHO-hOX40, …); assay: flow cytometry, CHO-hOX40, 200 nM
[5] = biological target: T1, human OX40 on cells (CHO-hOX40, …); assay: flow cytometry, CHO-hOX40, 0.390625 nM; remark: listed apart in the source
[6] = biological target: T1, human OX40 on cells (CHO-hOX40, …); assay: flow cytometry, CHO-hOX40, 3.125 nM
[7] = biological target: T1, human OX40 on cells (CHO-hOX40, …); assay: flow cytometry, CHO-hOX40, 200 nM; remark: listed apart in the source
[8] = biological target: T1, human OX40 on cells (CHO-hOX40, …); assay: flow cytometry, CHO-hOX40, 3.125 nM; remark: listed apart in the source
[9] = biological target: T1, human OX40 on cells (CHO-hOX40, …); assay: cell-based or functional assay
[10] = biological target: T1, human OX40 on cells (CHO-hOX40, …); assay: flow cytometry, CHO-hOX40, 50 nM
[11] = biological target: T1, human OX40 on cells (CHO-hOX40, …); assay: flow cytometry, CHO-hOX40, 0.024414063 nM
[12] = biological target: T1, human OX40 on cells (CHO-hOX40, …); assay: flow cytometry, CHO-hOX40, 100 nM blocker, competitor OX40L-hFc-fluorescein
[13] = biological target: T1, human OX40 on cells (CHO-hOX40, …); assay: flow cytometry, CHO-hOX40, 1.5625 nM
[14] = biological target: T1, human OX40 on cells (CHO-hOX40, …); assay: flow cytometry, CHO-hOX40, 0.09765625 nM
[15] = biological target: T1, human OX40 on cells (CHO-hOX40, …); assay: flow cytometry, CHO-hOX40, 50 nM; remark: listed apart in the source
[16] = biological target: T1, human OX40 on cells (CHO-hOX40, …); assay: flow cytometry, CHO-hOX40, 0.048828125 nM
[17] = biological target: T1, human OX40 on cells (CHO-hOX40, …); assay: flow cytometry, CHO-hOX40
[18] = biological target: T1, human OX40 on cells (CHO-hOX40, …); assay: flow cytometry, CHO-hOX40, 25 nM
[19] = biological target: T1, human OX40 on cells (CHO-hOX40, …); assay: flow cytometry, CHO-hOX40, 0.1953125 nM
[20] = biological target: T1, human OX40 on cells (CHO-hOX40, …); assay: flow cytometry, CHO-hOX40, 0.1953125 nM; remark: listed apart in the source

MFI [1]: 1.48e+06 MFI | MFI [2]: 119000 MFI | MFI [3]: 317000 MFI | MFI [4]: 2.68e+06 MFI | MFI [5]: 49700 MFI | MFI [6]: 932000 MFI | MFI [7]: 2.08e+06 MFI | MFI [8]: 342000 MFI | NFkB-Luc fold change in Jurkat stimulated by PHA+ anti-CD28 [9]: 4.82 fold over IgG4 control | NFkB-Luc fold change in Jurkat stimulated by anti-CD3+ anti-CD28 [9]: 4.05 fold over IgG4 control | MFI [10]: 1.08e+06 MFI | MFI [11]: 12800 MFI | MFI of OX40L signal on CHO-OX40 cells [12]: 19300 MFI | MFI [13]: 172000 MFI | MFI [14]: 14500 MFI | MFI [15]: 2.72e+06 MFI | MFI [16]: 8350 MFI | EC50 [17]: 12.4 nM | MFI [18]: 1.84e+06 MFI | MFI [19]: 24800 MFI | MFI [20]: 83200 MFI
B1: OX40L (control reagent; recombinant OX40L, Acro Biosystems) (ligand, UniProt P23510 51-183, looked up)
chain: QVSHRYPRIQSIKVQFTEYKKEKGFILTSQKEDEIMKVQNNSVIINCDGFYLISLKGYFSQEVNISLHYQKDEEPLFQLKKVRSVNSLMVASLTYKDKVYLNVTTDNTSLDDFHVNGGELILIHQNPGEFCVL
notes: may be the same reagent as OX40L-hFc
